The text below walks through data of patent US20080280834A1 (UNIVERSITY OF PITTSBURGH OF THE COMMONWEALTH SYSTEM OF …, published 2008).

For experiment [1], the target named is T1, Recombinant Human Fas/TNFRSF6/Fc Chimera (human, UniProt P25445 26-173).
T1 construct: also called FasR; Fas receptor; Fc part of the bought chimera not given
T1 sequence (looked up): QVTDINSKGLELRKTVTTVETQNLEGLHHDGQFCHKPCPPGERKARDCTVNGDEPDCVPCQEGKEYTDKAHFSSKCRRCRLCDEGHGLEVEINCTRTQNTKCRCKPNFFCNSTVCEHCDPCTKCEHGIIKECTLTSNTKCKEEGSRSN
Description: ELISA, peptide coated, Fas/Fc added. How it is done: (§1) ELISA. Peptides were dissolved in a coating buffer solution (0.05M Sodium Carbonate, 0.02% Sodium Azide, pH=9.6) at the appropriate concentrations to a final concentration of 10 μM. Dilutions were made accordingly to reach desired experimental concentrations. 100 μl aliquots of the peptide solution was added to each well and incubated for 2 hours. All incubations were carried out with shaking at T=37° C. Wells were washed by pipetting solution out of each well, adding 200 μL of washing solution (PBS-Tween; 0.5%), shaking for 15 minutes and emptying each well. Three wash cycles were carried out prior to addition of 200 μL of blocking solution (1% BSA in PBS buffer) to each well followed by incubation for 2 hours. Wells were then washed (as per above procedure) three times. Protein solutions of the appropriate concentrations (Vₛₒₗᵤₜᵢₒₙ 50 μL) were then added and incubated for 2 hours. After washing three times (as per above protocol) Fas specific antibody solution (˜1:20,000) was added to each well in 100 μL aliquots and incubated for 1 hour. After washing three times (as per above protocol) IgM-HRP solution (˜1:20,000) was added to each well in 100 μL aliquots and incubated (with shaking) for 1 hour at T=37° C. Wells were washed three times prior to the addition of ready-to-use TMD, followed by incubation for 30 minutes. 2M H₂SO₄ (3 drops) was added to stop colorimetric reaction and the absorption was taken at 450 nm on a Perkin-Elmer, Victor3 Model automated plate reader. Data was analyzed using standard regression fits in Excel.
Effect of Flanking Residues on Binding Affinities. […] While this work has shown that tetrapeptides based from the original protein sequence can inhibit the FasL/FasR cell death pathway at low nM concentrations, the ability to improve upon this was examined by looking at the extended sequence on both the N-terminal and C-terminal side of the YLGA (SEQ ID NO:1) motif. Peptides up to 12 amino acids in length were synthesized based on the α-Met sequence and their Kₐ values measured for the Fas receptor, Table 7.

Experiment [2] concerns the target T1, Recombinant Human Fas/TNFRSF6/Fc Chimera. Nature of the experiment: ELISA, peptide coated, Fas/Fc added. How it is done: as §1
(§2) Effect of Amino Acid Substitution on Binding Affinities. […] In the first series of peptides, alterations were made only to the tyrosine residue while retaining the final three amino acids homologous in the parent sequence (LGA).
This is another data set of the same source. In general terms: An ELISA detects its analyte on a solid surface through an enzyme-linked reagent.

Experiment [3] addresses T2, Fas receptor on Jurkat cells (UniProt P25445 26-335, limits assumed).
T2 sequence (looked up): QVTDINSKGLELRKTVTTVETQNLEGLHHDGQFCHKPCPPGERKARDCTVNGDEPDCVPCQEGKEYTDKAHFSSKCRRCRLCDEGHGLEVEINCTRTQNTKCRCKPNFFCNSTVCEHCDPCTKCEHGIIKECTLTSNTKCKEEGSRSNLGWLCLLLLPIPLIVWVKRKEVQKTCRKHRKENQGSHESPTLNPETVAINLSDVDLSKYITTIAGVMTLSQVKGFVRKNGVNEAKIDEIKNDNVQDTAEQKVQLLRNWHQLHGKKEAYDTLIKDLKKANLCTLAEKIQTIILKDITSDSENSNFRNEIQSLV
Nature of the experiment: cell-based or functional assay.

Experiment [4] deals with TNFR1. Description: cell-based or functional assay.
For experiment [5], the target named is T1, Recombinant Human Fas/TNFRSF6/Fc Chimera. Nature of the experiment: ELISA, peptide coated, Fas/Fc added. The method, then: as §1, with “After washing three times (as per above protocol) IgM-HRP solution (˜1:20,000) was added to each well in 100 μL aliquots and incubated (with shaking) for 1 hour at T=37° C.” left out
The source holds these as a separate data set.

In experiment [6] the target is T3, TNFR1.
T3 construct: The same entry is used for the Kd and for the EC50 rows
Nature of the experiment: method for TNFR not described.

Experiment [7] deals with T1, Recombinant Human Fas/TNFRSF6/Fc Chimera. Description: ELISA, peptide coated, Fas/Fc added. How it is done:
as §1, §2
The source holds these as a separate data set.

The target is the same in experiment [8]. Description: ELISA, peptide coated, Fas/Fc added. The method, then:
as §1, §2
This is another data set of the same source.

The target is the same in experiment [9]. Nature of the experiment: ELISA, peptide coated, Fas/Fc added. How it is done: as §1, §2
This is another data set of the same source.

The target is the same in experiment [10]. Nature of the experiment: ELISA, peptide coated, Fas/Fc added. How it is done: as §1, §2
The source holds these as a separate data set.

Experiment [11] deals with T2, Fas receptor on Jurkat cells. Description: cell-based or functional assay. This is another data set of the same source.

One may read the Kd as the concentration at which binding is half-saturated.

Like-named read-outs stand apart in the source and are kept apart here. No end group written: not given here.

T3 sequence (P19438 whole entry): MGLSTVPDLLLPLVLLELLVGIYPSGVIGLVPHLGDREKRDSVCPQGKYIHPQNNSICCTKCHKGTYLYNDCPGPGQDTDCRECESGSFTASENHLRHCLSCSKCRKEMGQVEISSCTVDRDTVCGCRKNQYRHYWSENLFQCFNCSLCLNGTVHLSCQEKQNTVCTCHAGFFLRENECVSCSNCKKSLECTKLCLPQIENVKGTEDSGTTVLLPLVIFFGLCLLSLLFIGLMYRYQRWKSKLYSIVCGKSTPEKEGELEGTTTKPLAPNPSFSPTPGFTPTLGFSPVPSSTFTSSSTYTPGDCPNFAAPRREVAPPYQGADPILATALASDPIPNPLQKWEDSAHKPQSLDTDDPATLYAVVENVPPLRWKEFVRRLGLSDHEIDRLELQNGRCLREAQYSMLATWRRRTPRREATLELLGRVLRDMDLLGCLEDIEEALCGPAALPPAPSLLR

On to HHIYLGATN [HHI YLG ATN], for which the Ka in [1] is 3e+08 M⁻¹.
On the same count and under the same terms, the figure for HHIYLGATNYI [HHI YLG ATN YI] is 3e+08 M⁻¹.

B1: YLGA (peptide)
peptide: YLGA
modifications: not fully specified
notes: Synthetic peptide; also called original tyrosine peptide
Take B1: the Ka in experiment [2], in [7], in experiment [8], in experiment [9] and in experiment [10] was 2e+08 M⁻¹ throughout. In addition, the “EC50 (FasR)” value in experiment [3] was determined as 6 nM. In addition, in experiment [4], the “EC50 (TNFR)” value was 11 nM. The Kd in experiment [5] came out at 5 nM; in [6] it was 6 nM; in [9], 5 nM. Besides, the “EC50 (nM), cell viability of Jurkat cells exposed to recombinant FasL” value (“EC50 (nM), cell viability” below) in experiment [11] came to 6 nM.
As for LLGA, in experiment [7], the Ka is 1e+07 M⁻¹. Further, in [9], the Ka came out at 1e+07 M⁻¹ and the Kd was determined as 88 nM. Besides, the “EC50 (nM), cell viability” value in [11] came to 93 nM.
Turning to YIGA, the Ka in experiment [2] turned out to be 2e+08 M⁻¹.
For YLGG, the “EC50 (FasR)” value in [3] came out at 52 nM. Further, in experiment [4], the “EC50 (TNFR)” value came to 8 nM. Also, the Kd in [5] is 28 nM; in experiment [6], 4 nM; in experiment [9], 28 nM. Also, the “times less affinity than YLGA” value in experiment [7] is roughly 10 times. Also, the Ka in [9] and in [10] was 4e+07 M⁻¹ in each case. For the same molecule, in [11], the “EC50 (nM), cell viability” value came to 52 nM.
YGGA: the Ka in experiment [2] came out at 1e+07 M⁻¹. The “fold decrease in Ka” value in experiment [7] amounted to 20 fold.
On to DLGA, for which, in experiment [7], the Ka amounted to 5e+07 M⁻¹ and the “fold drop off against YLGA” value was 4 fold.
For WLGA, the Ka in experiment [7] turned out to be 8e+07 M⁻¹. Besides, in experiment [9], the Ka came to 8e+07 M⁻¹ and the equilibrium dissociation constant (Kd) stood at 13 nM.
Consider YAGA, for which, in experiment [2], the Ka amounted to 3e+08 M⁻¹. Moreover, in experiment [9], the Ka was 3e+08 M⁻¹ and the Kd was 4 nM. Further, the “EC50 (nM), cell viability” value in [11] turned out to be 6 nM.
As for YLGT, the binding result in experiment [10] was “no binding (tested: concentration range of 1 nM to 1 µM)”.
Take YLGL: the “times less affinity than YLGA” value in experiment [7] was roughly 10 times. Besides, the Ka in experiment [10] is 3e+07 M⁻¹.
Consider YLAA, for which, in experiment [7], the “fold decrease in Ka” value was 20 fold. Further, the Ka in [8] worked out at 1e+06 M⁻¹.
For the molecule FLGA, the Ka in experiment [7] is 1e+08 M⁻¹. In [9], the Ka was 1e+08 M⁻¹ and the Kd is 10 nM.
YTGA: the binding result in experiment [2] is recorded as “no binding (tested: concentration range of 1 nM to 1 µM)”.
With YFGA, the binding result in experiment [2] is recorded as “no binding (tested: concentration range of 1 nM to 1 µM)”.
Consider YLIA, for which the binding result in experiment [8] is on record as “no binding (tested: concentration range of 1 nM to 1 µM)”.
For YVGA, in experiment [2], the Ka was 2e+08 M⁻¹.
As for TLGA, in experiment [7], the Ka stood at 2e+08 M⁻¹.
With ELGA, in experiment [7], the Ka was 5e+07 M⁻¹ and the “fold drop off against YLGA” value is 4 fold.
For the molecule ALGA, the binding result in [7] is reported as “no binding (tested: concentration range of 1 nM to 1 µM)”.
On to ILGA, for which the Ka in experiment [7] stood at 9e+06 M⁻¹.
In the case of YLGI, the “times less affinity than YLGA” value in experiment [7] is roughly 10 times. For the same molecule, the Ka in [10] stood at 3e+07 M⁻¹.
With GLGA, the binding result in experiment [7] is recorded as “no binding (tested: concentration range of 1 nM to 1 µM)”.
On to KLGA, for which the Ka in experiment [7] came to 8e+06 M⁻¹.
For SLGA, the Ka in experiment [7] was 2e+08 M⁻¹. In [9], the Ka was found to be 2e+08 M⁻¹ and the Kd was 5 nM. The “EC50 (nM), cell viability” value in [11] was 6 nM.
On to YLLA, for which the “fold decrease in Ka” value in [7] turned out to be 20 fold. Also, the Ka in experiment [8] was 1e+06 M⁻¹.
For HHIYLGATNY [HHI YLG ATN Y], the Ka in experiment [1] amounted to 3e+08 M⁻¹.
Still for that read-out and setting: the figure for YLGATNYIY [YLG ATN YIY] is 3e+08 M⁻¹; for HHIYLGATNYIY [HHI YLG ATN YIY] it is 3e+08 M⁻¹; for IYLGATNYIY [I YLG ATN YIY] it is 3e+08 M⁻¹.
On the same count and under the same terms, the value for HIYLGATNYIY [HI YLG ATN YIY] was 3e+08 M⁻¹.
Still for that read-out and setting: the value for HHIYLGA [HHI YLG A] was 3e+08 M⁻¹; that for HHIYLGAT [HHI YLG AT] was 3e+08 M⁻¹.
